Laboratory results as given in PMC8324772.

Key:
[1] = target: Klebsiella quasipneumoniae Qmp M1-977 TolC (KqTolC), recombinant, C-terminal His6 (Klebsiella quasipneumoniae); experiment: ITC + other: stopped-flow fluorescence; koff not measured (too slow): estimated from the Kd by ITC and the kon by stopped-flow, assuming Kd = koff/kon
[2] = target: Klebsiella quasipneumoniae Qmp M1-977 TolC (KqTolC), recombinant, C-terminal His6 (Klebsiella quasipneumoniae); experiment: ITC; KlebC constructs in the syringe (76-89 µM), TolC trimer in the cell (5-7.6 µM); 25 mM Tris-HCl pH 7.5, 1% (w/v) β-OG; no feedback mode, 750 s between injections; single set of identical sites
[3] = target: Klebsiella quasipneumoniae Qmp M1-977 TolC (KqTolC), recombinant, C-terminal His6 (Klebsiella quasipneumoniae); experiment: stopped-flow fluorescence (pre-equilibrium, tryptophan emission); 0.5 µM KqTolC with excess KlebC_(1-254), pseudo-first-order, 25 °C; kapp from single exponential fits, kon from the gradient of kapp against concentration
[4] = target: TolC of Klebsiella quasipneumoniae Qmp M1-977, endogenous (Klebsiella quasipneumoniae (endogenous in K. quasipneumoniae Qmp M1-977))
[5] = target: Klebsiella quasipneumoniae Qmp M1-977 TolC (KqTolC), recombinant, C-terminal His6 (Klebsiella quasipneumoniae); experiment: cryo-EM structure; KqTolC-KlebC_(1-254) mixed in β-OG and transferred into amphipol A8-35 without cross-linking; only KqTolC resolved; 3.4 Å
[6] = target: Klebsiella quasipneumoniae Qmp M1-977 TolC (KqTolC), recombinant, C-terminal His6 (Klebsiella quasipneumoniae); experiment: stopped-flow fluorescence (pre-equilibrium, loss of Trp-to-AEDANS FRET); TolC in excess, pseudo-first-order, 25 °C; single exponential fits
[7] = target: Klebsiella quasipneumoniae Qmp M1-977 TolC (KqTolC), recombinant, C-terminal His6 (Klebsiella quasipneumoniae); experiment: stopped-flow fluorescence (pre-equilibrium, loss of Trp-to-AEDANS FRET); Q204C^AEDANS KlebC_(1-254) in excess, pseudo-first-order, 25 °C; single exponential fits
[8] = target: Klebsiella quasipneumoniae Qmp M1-977 TolC (KqTolC), recombinant, C-terminal His6 (Klebsiella quasipneumoniae); experiment: equilibrium fluorescence (Trp-to-AEDANS FRET within KlebC); 1 µM Q204C^AEDANS KlebC_(1-254) without and with 1 µM KqTolC trimer; excitation 280 nm, FRET signal at 490 nm, 25 °C

## KlebC_(1-254) (domain or fragment)
[1]
  koff: 5e-05 s⁻¹
[2]
  Kd: 35 nM
  dH: 30.6 kcal/mol
  stoichiometry N (binding sites per TolC trimer): 0.9
[3]
  kon: 1900 M⁻¹ s⁻¹

## KlebC_(51-254) (domain or fragment)
[4]
  growth of K. quasipneumoniae on LB-Agar with 1 mg ml^−1 Rhodamine 6G after serial dilution in 1 or 10 µM KlebC (51-254): 4 log
[2]
  Kd: 368 nM
  dH: 20.8 kcal/mol
  stoichiometry N (binding sites per TolC trimer): 1.34

## Klebsiella quasipneumoniae Qmp M1-977 TolC (KqTolC), recombinant, C-terminal His6 (natural protein)
[5]
  stoichiometry N: 3

## Q204C^AEDANS KlebC_(1-254) (domain or fragment)
[6]
  kon: 6700 M⁻¹ s⁻¹
[7]
  kon: 2900 M⁻¹ s⁻¹
[8]
  decrease of the Trp-to-AEDANS FRET signal at 490 nm upon addition of equimolar TolC trimer: 77%
